Earlier results on 1 substance are cited in PMC5413910.

For this series, the target named is linear (Met1-linked) diubiquitin (Homo sapiens) (UniProt P0CG48).

Sequence of OTULIN (Q96BN8 whole entry): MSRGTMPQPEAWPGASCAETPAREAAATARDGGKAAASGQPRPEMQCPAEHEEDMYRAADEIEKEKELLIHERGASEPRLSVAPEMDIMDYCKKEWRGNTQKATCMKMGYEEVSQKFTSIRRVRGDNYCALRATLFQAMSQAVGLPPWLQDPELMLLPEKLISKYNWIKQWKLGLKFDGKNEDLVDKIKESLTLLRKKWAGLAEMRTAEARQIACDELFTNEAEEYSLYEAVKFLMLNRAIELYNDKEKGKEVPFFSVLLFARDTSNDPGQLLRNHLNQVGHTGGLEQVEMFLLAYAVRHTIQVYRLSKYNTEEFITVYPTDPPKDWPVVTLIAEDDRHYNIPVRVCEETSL

As to OTULIN (from UniProt Q96BN8), the dissociation constant Kd was 150 nM.
